# Data: PMC11327152, “Fully-automated production of [^68Ga]Ga-Trivehexin for clinical application and its biodistribution in healthy volunteers” (Frontiers in Oncology, 2024)
# Tests used:
# [1] = Stability of [^68Ga]Ga-Trivehexin in formulation (PBS), radio-HPLC; format: physicochemical; details: Phosphate Buffer Saline, 2 h co-incubation of final product
# Method: Radiochemical purity was evaluated by radio-HPLC and radio-TLC. For radio-HPLC, a mobile phase of H2O with 0.1% trifluoroacetic acid (TFA) (v/v, phase A) and acetonitrile with 0.1% TFA (v/v, phase B) was used with a flow rate of 1.0 mL/min and a linear elution gradient as follows: 0-5 min (0-95% A); 5-10 min (95-30% A);10-20 min (30-0% A). For radio-TLC, 0.4 M ammonium acetate solution/methanol (v/v, 1/1) (A) and 0.1 M citrate buffer (B) were used as mobile phases, respectively.
# The stability of [^68Ga]Ga-Trivehexin in formulation and serum was further evaluated in Phosphate Buffer Saline (PBS) and Fetal Bovine Serum (FBS). After co-incubation of the final product with PBS or FBS for 60 or 120 min, radio-HPLC was used for the analysis.
# [2] = clinical; details: human, in vivo, iv, total radioactivity
# Method: (§1) The clinical study was approved by Medical Ethics Committee, Zhongnan Hospital of Wuhan University and registered at ClinicalTrials.gov (NCT05835570). PET/CT imaging was performed using a Siemens-Biograph mCT PET/CT scanner (Siemens Healthineers, Erlangen, Germany). No special preparation was needed for [^68Ga]Ga-Trivehexin PET/CT. The injection dose was 87-122 MBq (70.7 MBq/mL, 90.9 MBq/nmol) and was determined on the basis of the patient’s weight (1.85 MBq/kg). PET/CT images were scanned from the top of the head to the upper thigh. PET data were obtained in a three-dimensional mode (matrix 200 × 200) of 6-8 bed positions (3 min/bed). Attenuation correction of PET images was performed using low-dose CT data. Image reconstruction was performed using the TrueX and time-of-flight (ultrahigh-definition PET) algorithms.
# (§2) Applications of [^68Ga]Ga-Trivehexin in 3 healthy volunteers were done with written informed consent, and details of the volunteers were shown in Supplementary Table S2 . […] The PET scan was performed at 10 min, 35 min, and 60 min after intravenous injection, without repeated CT scans. Another PET/CT imaging sequence was obtained at 150 min post-injection, as the subject had to leave the scanner for voiding. Based on human PET data, the dosimetry values were calculated using OLINDA V2.2 to calculate organ doses and effective dose (as defined by International Commission on Radiological Protection publication 103) ([14]) using the International Commission on Radiological Protection publication 89 ([15]) adult human male and female models.
# [3] = test system: healthy volunteers; experiment: clinical; details: human, in vivo, iv
# Method: as §1, §2
# [4] = test system: healthy volunteers; parameters: species or system human; details: in vivo
# Method: as §2
# [5] = clinical; details: human, in vivo, iv, total radioactivity; remark: listed apart in the source
structure (smiles),measurement,setting,value
"CC(C)C[C@@H]1NC(=O)[C@H](CC(=O)O)NC(=O)CNC(=O)[C@H](CCCNC(=N)N)NC(=O)[C@H](Cc2ccc(O)cc2)NC(=O)[C@H](CCCCNC(=O)CCc2cn(CCCNC(=O)CCP(=O)(O)CN3CCN(CP(=O)(O)CCC(=O)NCCCn4cc(CCC(=O)NCCCC[C@H]5C(=O)N[C@@H](Cc6ccc(O)cc6)C(=O)N[C@@H](CCCNC(=N)N)C(=O)NCC(=O)N[C@@H](CC(=O)O)C(=O)N[C@@H](CC(C)C)C(=O)N[C@@H](C)C(=O)N[C@@H](Cc6ccc(O)cc6)C(=O)N6CCC[C@@H]6C(=O)N5C)nn4)CCN(CP(=O)(O)CCC(=O)NCCCn4cc(CCC(=O)NCCCC[C@H]5C(=O)N[C@@H](Cc6ccc(O)cc6)C(=O)N[C@@H](CCCNC(=N)N)C(=O)NCC(=O)N[C@@H](CC(=O)O)C(=O)N[C@@H](CC(C)C)C(=O)N[C@@H](C)C(=O)N[C@@H](Cc6ccc(O)cc6)C(=O)N6CCC[C@@H]6C(=O)N5C)nn4)CC3)nn2)N(C)C(=O)[C@H]2CCCN2C(=O)[C@H](Cc2ccc(O)cc2)NC(=O)[C@H](C)NC1=O [[^68Ga]Ga-Trivehexin, metal not drawn]",intact tracer remained in PBS,[1],up to 98.9%
same,SUV at 1 h,[2]; SUVmean ± SD Colon,1.07 ± 0.21 SUV
same,SUV at 2.5 h,[2]; SUVmean ± SD Fat tissue,0.22 ± 0.1 SUV
same,SUV at 2.5 h,[2]; SUVmean ± SD Kidney,21.3 ± 2 SUV
same,SUV at 1 h,[2]; SUVmean ± SD Liver,0.82 ± 0.07 SUV
same,SUV at 2.5 h,[2]; SUVmean ± SD Lung,0.45 ± 0.13 SUV
same,SUV at 1 h,[2]; SUVmean ± SD Muscle,0.97 ± 0.1 SUV
same,SUV at 2.5 h,[2]; SUVmean ± SD Myocardium,0.5 ± 0.09 SUV
same,SUV at 2.5 h,[2]; SUVmean ± SD Parotid gland,0.97 ± 0.07 SUV
same,SUV at 1 h,[2]; SUVmean ± SD Spinal Canal(C5),0.85 ± 0.13 SUV
same,SUV at 2.5 h,[2]; SUVmean ± SD Spleen,0.55 ± 0.07 SUV
same,SUVmean ± SD Brain,[3],0.01 ± 0.00
same,Dose Adrenals,[4],3.22E-02 mGy/MBq
same,Dose Brain,[4],1.40E-03 mGy/MBq
same,Dose Esophagus,[4],1.98E-02 mGy/MBq
same,Dose Eyes,[4],4.25E-03 mGy/MBq
same,Dose Gallbladder Wall,[4],2.09E-02 mGy/MBq
same,Dose Heart Wall,[4],1.73E-02 mGy/MBq
same,Dose Kidneys,[4],2.26E-01 mGy/MBq
same,Dose Left colon,[4],1.88E-02 mGy/MBq
same,Dose Liver,[4],1.58E-02 mGy/MBq
same,Dose Lungs,[4],8.72E-03 mGy/MBq
same,Dose Osteogenic Cells,[4],1.86E-02 mGy/MBq
same,Dose Pancreas,[4],1.96E-02 mGy/MBq
same,Dose Prostate,[4],1.77E-02 mGy/MBq
same,Dose Rectum,[4],1.96E-02 mGy/MBq
same,Dose Red Marrow,[4],1.16E-02 mGy/MBq
same,Dose Right colon,[4],1.86E-02 mGy/MBq
same,Dose Salivary Glands,[4],1.53E-02 mGy/MBq
same,Dose Small Intestine,[4],1.78E-02 mGy/MBq
same,Dose Spleen,[4],1.68E-02 mGy/MBq
same,Dose Stomach Wall,[4],1.77E-02 mGy/MBq
same,Dose Testes,[4],1.41E-02 mGy/MBq
same,Dose Thymus,[4],1.31E-02 mGy/MBq
same,Dose Thyroid,[4],1.96E-02 mGy/MBq
same,Dose Total Body,[4],1.26E-02 mGy/MBq
same,Dose Urinary Bladder Wall,[4],8.24E-02 mGy/MBq
same,Effective Dose,[4],1.67E-02 mGy/MBq
same,effective dose in adrenals,[4],3.22E-02 mSv/MBq
same,effective dose in kidneys,[4],2.26E-01 mSv/MBq
same,effective dose in urinary bladder wall,[4],8.24E-02 mSv/MBq
same,total body effective dose,[4],1.67E-02 mSv/MBq
same,SUV at 0.25 h,[5]; SUVmean ± SD Brain,0.04 ± 0.01 SUV
same,SUV at 0.5 h,[5]; SUVmean ± SD Brain,0.03 ± 0.01 SUV
same,SUV at 0.25 h,[5]; SUVmean ± SD Colon,1.86 ± 0.31 SUV
same,SUV at 0.5 h,[5]; SUVmean ± SD Colon,1.52 ± 0.36 SUV
same,SUV at 2.5 h,[5]; SUVmean ± SD Colon,0.78 ± 0.16 SUV
same,SUV at 0.25 h,[5]; SUVmean ± SD Eyes,0.36 ± 0.04 SUV
same,SUV at 0.5 h,[5]; SUVmean ± SD Eyes,0.28 ± 0.14 SUV
same,SUV at 1 h,[5]; SUVmean ± SD Eyes,0.71 ± 0.28 SUV
same,SUV at 2.5 h,[5]; SUVmean ± SD Eyes,0.12 ± 0.03 SUV
same,SUV at 0.25 h,[5]; SUVmean ± SD Fat tissue,0.26 ± 0.03 SUV
same,SUV at 0.5 h,[5]; SUVmean ± SD Fat tissue,0.22 ± 0.03 SUV
same,SUV at 1 h,[5]; SUVmean ± SD Fat tissue,0.26 ± 0.02 SUV
same,SUV at 0.25 h,[5]; SUVmean ± SD Kidney,19.3 ± 1.13 SUV
same,SUV at 0.5 h,[5]; SUVmean ± SD Kidney,21.5 ± 1.28 SUV
same,SUV at 1 h,[5]; SUVmean ± SD Kidney,23.4 ± 2.38 SUV
same,SUV at 0.25 h,[5]; SUVmean ± SD Liver,1.68 ± 0.26 SUV
same,SUV at 0.5 h,[5]; SUVmean ± SD Liver,1.11 ± 0.23 SUV
same,SUV at 2.5 h,[5]; SUVmean ± SD Liver,0.65 ± 0.1 SUV
same,SUV at 0.25 h,[5]; SUVmean ± SD Lung,0.65 ± 0.03 SUV
same,SUV at 0.5 h,[5]; SUVmean ± SD Lung,0.58 ± 0.14 SUV
same,SUV at 1 h,[5]; SUVmean ± SD Lung,0.53 ± 0.05 SUV
same,SUV at 0.25 h,[5]; SUVmean ± SD Muscle,1.04 ± 0.1 SUV
same,SUV at 0.5 h,[5]; SUVmean ± SD Muscle,1.04 ± 0.01 SUV
same,SUV at 2.5 h,[5]; SUVmean ± SD Muscle,0.68 ± 0.1 SUV
same,SUV at 0.25 h,[5]; SUVmean ± SD Myocardium,1.69 ± 0.35 SUV
same,SUV at 0.5 h,[5]; SUVmean ± SD Myocardium,0.83 ± 0.13 SUV
same,SUV at 1 h,[5]; SUVmean ± SD Myocardium,0.52 ± 0.01 SUV
same,SUV at 0.25 h,[5]; SUVmean ± SD Oral mucosa,2.6 ± 0.38 SUV
same,SUV at 0.5 h,[5]; SUVmean ± SD Oral mucosa,2.28 ± 0.13 SUV
same,SUV at 1 h,[5]; SUVmean ± SD Oral mucosa,2.12 ± 0.43 SUV
same,SUV at 2.5 h,[5]; SUVmean ± SD Oral mucosa,1.59 ± 0.42 SUV
same,SUV at 0.25 h,[5]; SUVmean ± SD Pancreas,2.46 ± 0.12 SUV
same,SUV at 0.5 h,[5]; SUVmean ± SD Pancreas,1.47 ± 0.24 SUV
same,SUV at 1 h,[5]; SUVmean ± SD Pancreas,1.01 ± 0.11 SUV
same,SUV at 2.5 h,[5]; SUVmean ± SD Pancreas,1.13 ± 0.28 SUV
same,SUV at 0.25 h,[5]; SUVmean ± SD Parotid gland,2.31 ± 0.09 SUV
same,SUV at 0.5 h,[5]; SUVmean ± SD Parotid gland,1.19 ± 0.06 SUV
same,SUV at 1 h,[5]; SUVmean ± SD Parotid gland,1.01 ± 0.1 SUV
same,SUV at 0.25 h,[5]; SUVmean ± SD Spinal Canal(C5),1.17 ± 0.15 SUV
same,SUV at 0.5 h,[5]; SUVmean ± SD Spinal Canal(C5),0.62 ± 0.12 SUV
same,SUV at 2.5 h,[5]; SUVmean ± SD Spinal Canal(C5),0.54 ± 0.15 SUV
same,SUV at 0.25 h,[5]; SUVmean ± SD Spleen,1.95 ± 0.12 SUV
same,SUV at 0.5 h,[5]; SUVmean ± SD Spleen,1.01 ± 0.06 SUV
same,SUV at 1 h,[5]; SUVmean ± SD Spleen,0.76 ± 0.01 SUV
same,SUV at 0.25 h,[5]; SUVmean ± SD Thyroid gland,3.41 ± 0.22 SUV
same,SUV at 0.5 h,[5]; SUVmean ± SD Thyroid gland,1.54 ± 0.29 SUV
same,SUV at 1 h,[5]; SUVmean ± SD Thyroid gland,1.37 ± 0.04 SUV
same,SUV at 2.5 h,[5]; SUVmean ± SD Thyroid gland,1.01 ± 0.37 SUV
